Results published in US7972815B2, “Method of producing sugar chain using human G4 polypeptide” (Kyowa Hakko Kirin Co., Ltd., priority 1999, dated 2011).
Positions count from the first letter of the chain named.

B1: G3: polypeptide containing 397 amino acids, SEQ ID NO:1; novel β1,3-N-acetylglucosaminyl transferase (protein, listed as Homo sapiens)
chain: MSVGRRRIKLLGILMMANVFIYFIMEVSKSSSQEKNGKGEVIIPKEKFWKISTPPEAYWNREQEKLNRQYNPILSMLTNQTGEAGRLSNISHLNYCEPDLRVTSVVTGFNNLPDRFKDFLLYLRCRNYSLLIDQPDKCAKKPFLLLAIKSLTPHFARRQAIRESWGQESNAGNQTVVRVFLLGQTPPEDNHPDLSDMLKFESEKHQDILMWNYRDTFFNLSLKEVLFLRWVSTSCPDTEFVFKGDDDVFVNTHHILNYLNSLSKTKAKDLFIGDVIHNAGPHRDKKLKYYIPEVVYSGLYPPYAGGGGFLYSGHLALRLYHITDQVHLYPIDDVYTGMCLQKLGLVPEKHKGFRTFDIEEKNKNNICSYVDLMLVHSRKPQEMIDIWSQLQSAHLKC
B2: G4: polypeptide composed of 372 amino acids, SEQ ID NO:2; novel β1,3-N-acetylglucosaminyl transferase (protein, listed as Homo sapiens)
chain: MKYLRHRRPNATLILAIGAFTLLLFSLLVSPPTCKVQEQPPAIPEALAWPTPPTRPAPAPCHANTSMVTHPDFATQPQHVQNFLLYRHCRHFPLLQDVPPSKCAQPVFLLLVIKSSPSNYVRRELLRRTWGRERKVRGLQLRLLFLVGTASNPHEARKVNRLLELEAQTHGDILQWDFHDSFFNLTLKQVLFLQWQETRCANASFVLNGDDDVFAHTDNMVFYLQDHDPGRHLFVGQLIQNVGPIRAFWSKYYVPEVVTQNERYPPYCGGGGFLLSRFTAAALRRAAHVLDIFPIDDVFLGMCLELEGLKPASHSGIRTSGVRAPSQHLSSFDPCFYRDLLLVHRFLPYEMLLMWDALNQPNLTCGNQTQIY
B3: G4-2: polypeptide containing 372 amino acids, SEQ ID NO:3; 328th amino acid Arg instead of His (protein, listed as Homo sapiens)
chain: B2 chain with H328R
B4: FLAG peptide-fused G4 polypeptide: secreted G4, 38th glutamic acid to 372nd tyrosine of SEQ ID NO:2, with immunoglobulin signal sequence and FLAG peptide (protein, listed as Homo sapiens)
chain: EQPPAIPEALAWPTPPTRPAPAPCHANTSMVTHPDFATQPQHVQNFLLYRHCRHFPLLQDVPPSKCAQPVFLLLVIKSSPSNYVRRELLRRTWGRERKVRGLQLRLLFLVGTASNPHEARKVNRLLELEAQTHGDILQWDFHDSFFNLTLKQVLFLQWQETRCANASFVLNGDDDVFAHTDNMVFYLQDHDPGRHLFVGQLIQNVGPIRAFWSKYYVPEVVTQNERYPPYCGGGGFLLSRFTAAALRRAAHVLDIFPIDDVFLGMCLELEGLKPASHSGIRTSGVRAPSQHLSSFDPCFYRDLLLVHRFLPYEMLLMWDALNQPNLTCGNQTQIY
modifications: Ig signal sequence and FLAG peptide
B5: FLAG peptide-fused G3 polypeptide: secreted G3, 31st serine to 397th cysteine of SEQ ID NO:1, with immunoglobulin signal sequence and FLAG peptide (protein, listed as Homo sapiens)
chain: SSQEKNGKGEVIIPKEKFWKISTPPEAYWNREQEKLNRQYNPILSMLTNQTGEAGRLSNISHLNYCEPDLRVTSVVTGFNNLPDRFKDFLLYLRCRNYSLLIDQPDKCAKKPFLLLAIKSLTPHFARRQAIRESWGQESNAGNQTVVRVFLLGQTPPEDNHPDLSDMLKFESEKHQDILMWNYRDTFFNLSLKEVLFLRWVSTSCPDTEFVFKGDDDVFVNTHHILNYLNSLSKTKAKDLFIGDVIHNAGPHRDKKLKYYIPEVVYSGLYPPYAGGGGFLYSGHLALRLYHITDQVHLYPIDDVYTGMCLQKLGLVPEKHKGFRTFDIEEKNKNNICSYVDLMLVHSRKPQEMIDIWSQLQSAHLKC
modifications: Ig signal sequence and FLAG peptide

How the values were obtained:
[1] = β1,3-N-acetylglucosaminyl transferase activity in cell extract of stable transformants (Example 8); type: biochemical, human; conditions: cell extract of Namalwa KJM-1 transformed by expression plasmid; 50 μM pyridylaminated LNnT; 37° C., 16 hours; control plasmid cells 1.8%
Description: The β1,3-N-acetylglucosaminyl transferase activity was examined by using a cell extract of stable transformants which were transformed by a plasmid capable of expressing G3, G4, G4-2 or G7 polypeptide obtained in Example 7.
The transformed cells (about 2×10^7) were transferred into a microtube (1.5 ml: manufactured by Eppendorf) and centrifuged (550×g for 7 minutes) to collect the cells. The cells were washed with 0.9 ml of PBS, the washed cells were suspended in a solution […] composed of 20 mmol/l HEPES (pH 7.2) and 1% Triton X-100 and then the cells were disrupted by a sonicator (Bioruptor; manufactured by Cosmo Bio). After standing at 4° C. for 1 hour, a supernatant was obtained by centrifugation (550×g for 7 minutes). The supernatant was used as an enzyme sample. The β1,3-N-acetylglucosaminyl transferase activity was measured by using this enzyme sample.
Preparation of a pyridylaminated sugar chain substrates and activity measurement were carried out in accordance with known methods [Japanese Published Unexamined Patent Application No. 181757/94, Japanese Published Unexamined Patent Application No. 823021/94, J. Biol. Chem., 269, 14730 (1994), J. Biol. Chem., 267, 2994 (1992)].
(§1) Specifically, the reaction was carried out at 37° C. for 16 hours in 30 μl of an assay solution [200 mmol/l of MOPS (pH 7.5), 50 mmol/l of UDP-GlcNAc (SIGMA), 20 mmol/l of MnCl2, 0.3% Triton X-100, 50 μM of a pyridylaminated sugar chain substrate and 10 μl of the above cell lysate], and then products were detected by a high performance liquid chromatography (HPLC).
As a substrate, lacto-N-neotetraose (Galβ1-4GlcNAcβ1-3Galβ1-4Glc; hereinafter referred to as “LNnT”) fluorescence-labeled with aminopyridine was used. […]
(§2) Products were detected by using a fluorescence spectrum photometer FP-920 (JASCO Corporation) (excitation wavelength 320 nm, radiation wavelength 400 nm). […]
(§3) The amount of products was measured by using pyridylaminated lactose as a standard and comparing their fluorescence intensity.

[2] = β1,3-N-acetylglucosaminyl transferase activity of secreted FLAG peptide-fused polypeptides (method of Example 8); type: biochemical, human
Description: as §1
As a substrate, lacto-N-neotetraose (Galβ1-4GlcNAcβ1-3Galβ1-4Glc; hereinafter referred to as “LNnT”) fluorescence-labeled with aminopyridine was used.
After carrying out the reaction by using the assay solution with or without UDP-GlcNAc (sugar donor), HPLC was carried out and peaks appeared only in the assay solution containing UDP-GlcNAc were defined as products.
The assay solution after completion of the reaction was treated at 100° C. for 5 minutes and then centrifuged at 10,000×g for 5 minutes, and a portion (5 μl) of the thus obtained supernatant was applied to HPLC.
The HPLC was carried out by using TSK-gel ODS-80Ts column (4.6×300 mm; Tosoh); 0.02 M ammonium acetate buffer (pH 4.0) was used as an eluate at elution temperature 50° C. and flow rate 0.5 ml/min.
as §2, §3
A β1,3-N-acetylglucosaminyl transferase activity of FLAG peptide-fused G4 polypeptide expressed as a secreted form in Namalwa KJM-1 cell was measured by using 15 μl of the eluate prepared in the above (4). […] As a result, a β1,3-N-acetylglucosaminyl transferase activity was detected when the eluate derived from the culture supernatant of pAMoF2-G4-introduced Namalwa KJM-1 cell was used. […] On the other hand, the activity was not detected when the eluate derived from the culture supernatant of Namalwa KJM-1 cell transformed by the vector pAMoF2 was used.
A β1,3-N-acetylglucosaminyl transferase activity of FLAG peptide-fused G4 polypeptide produced as a secreted form in the insect cell was measured using 15 μl of the eluate prepared in the above (3). […] As a result, a β1,3-N-acetylglucosaminyl transferase activity was detected when the eluate derived from the culture supernatant of the insect cell transformed by pVL1393-F2G4 was used.
A β1,3-N-acetylglucosaminyl transferase activity was also detected when the resin before elution was used. […]
A β1,3-N-acetylglucosaminyl transferase activity of FLAG peptide-fused G3 polypeptide was measured by using 15 μl of the purified sample prepared in the above (3). […] As a result, a β1,3-N-acetylglucosaminyl transferase activity was detected. […]

[3] = 15 μl eluate/purified sample from insect cell (Sf21) culture supernatant

Molecule	ratio of a substrate (LNnT) converted into a product (GlcNAcβ1-3Galβ1-4GlcNAcβ1-3Galβ1-4Glc) [1] [%]	ratio of the substrate converted into the product ([2]; 15 μl eluate from culture supernatant of pAMoF2-G4-introduced Namalwa KJM-1 cell) [%]	ratio of the substrate converted into the product [2, 3] [%]	ratio of the substrate converted into the product ([2]; insect cell product, resin before elution (enzyme adsorbed to Anti-FLAG M1 Affinity Gel)) [%]
B1	2.7	–	–	–
B2	2.8	–	–	–
B3	2.8	–	–	–
B4	–	0.51	12.1	21.0
B5	–	–	100	–
